Assay results: the supplement of paper PMC7877785
± gives the uncertainty stated by the source.

Experiment: self-splicing fitness, log relative to wild type (ln ratio); higher = more splicing; Tetrahymena group I intron in knt gene, E. coli kanamycin selection, DiMSum; sequences stand for … in CUCUCU…GGAGGGAAAAGUUAUCAGGCAUGCACCUGGUAGCUAGUCUUUAAACCAAUAGAUUGCAUCGGUUUAAAAGGCAAGACCGUCAAAUUGCGGGAAAGGGGUCAACAGCCGUUCAGUACCAAGUCUCAGGGGAAACUUUGAGAUGGCCUUGCAAAGGGUAUGGUAAUAAGCUGACGGACAUGGUCCUAACCACGCAGCCAAGUCCUAAGUCAACAGAUCUUCUGUUGAUAUGGAUGCAGUUCACAGACUAAAUGUCGGUCGGGGAAGAUGUAUUCUUCUCAUAAGAUAUAGUCGGACCUCUCCUUAAUGGGAGCUAGCGGAUGAAGUGAUGCAACACUGGAGCCGCUGGGAACUAAUUUGUAUGCGAAAGUAUAUUGAUUAGUUUUGGAGUACUCGUGGUCG
Procedure, shortened: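 Pooled colonies went to amplicon sequencing on an Illumina HiSeq 2500 after six replicate transformations. The plates were LB agar with 100 μg/mL carbenicillin, 50 μM IPTG and 0.2% rhamnose, with or without 25 μg/mL kanamycin, incubated overnight at 37°C or 30°C. The E. coli BL21(DE3) library had all eight P1ex-region intron nucleotides randomised, the intron placed in the knt kanamycin-resistance gene on pET-22b(+). DiMSum fitness is the error-weighted combination of replicate fold changes, kanamycin against none, normalised to wild type.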

Sequence | self-splicing fitness (ln) (30 °C) | self-splicing fitness (ln) (37 °C)
CGGGAGCAAUAUUACGUACA | -3.72 ± 0.35 | 
CGGGAGCAAUAUUACGUAUU | -4.48 ± 0.41 | -2.31 ± 0.37
CGGGAGCAAUAUUACGUGAG | -1.03 ± 0.11 | -0.865 ± 0.11
CGGGAGCAAUAUUACGUGCU | -3.7 ± 0.21 | -2.87 ± 0.22
CGGGAGCAAUAUUACGUGUA | -4.05 ± 0.39 | -1.47 ± 0.22
CGGGAGCAAUAUUACGUUUA | -3.47 ± 0.31 | -1.8 ± 0.28
CGGUAGCAAUAUUACGAAAA | -2.62 ± 0.35 | -2.77 ± 0.39
CGGUAGCAAUAUUACGAAGG | -0.178 ± 0.15 | 0.565 ± 0.16
CGGUAGCAAUAUUACGAGAA | -2.77 ± 0.32 | -1.85 ± 0.33
CGGUAGCAAUAUUACGAGGG | -3.72 ± 0.36 | -2.96 ± 0.25
CGGUAGCAAUAUUACGCACA | -0.755 ± 0.26 | -0.0778 ± 0.19
CGGUAGCAAUAUUACGCCAG | -0.874 ± 0.092 | -1.03 ± 0.14
CGGUAGCAAUAUUACGCCCC | -1.29 ± 0.24 | -0.667 ± 0.29
CGGUAGCAAUAUUACGCCGG | -1.45 ± 0.078 | -0.573 ± 0.12
CGGUAGCAAUAUUACGCGUC |  | -1.81 ± 0.39
CGGUAGCAAUAUUACGGAAG | -0.936 ± 0.13 | -0.67 ± 0.14
CGGUAGCAAUAUUACGGAUG | -0.393 ± 0.063 | 0.221 ± 0.096
CGGUAGCAAUAUUACGGCUG | -4.13 ± 0.25 | -1.05 ± 0.16
CGGUAGCAAUAUUACGGGGC |  | -2.39 ± 0.34
CGGUAGCAAUAUUACGGUAG | -0.557 ± 0.071 | -0.0774 ± 0.089

Sequence | self-splicing fitness (ln) (30 °C) | self-splicing fitness (ln) (37 °C)
CGGUAGCAAUAUUACGUCCU | -0.294 ± 0.063 | 0.121 ± 0.08
CGGUAGCAAUAUUACGUUAU | -2.66 ± 0.25 | 
CGUAAGCAAUAUUACGAAGG | -1.78 ± 0.12 | -1.16 ± 0.2
CGUAAGCAAUAUUACGACAC | -2.84 ± 0.14 | -2.55 ± 0.16
CGUAAGCAAUAUUACGACUU | -3.09 ± 0.23 | -1.35 ± 0.22
CGUAAGCAAUAUUACGAGAU | -4.04 ± 0.47 | -2.55 ± 0.41
CGUAAGCAAUAUUACGAUAA | -2.66 ± 0.23 | -1.86 ± 0.24
CGUAAGCAAUAUUACGAUGC |  | -2.04 ± 0.26
CGUAAGCAAUAUUACGCAUC |  | -2.03 ± 0.26
CGUAAGCAAUAUUACGCCAC | -2.55 ± 0.42 | -0.936 ± 0.3
CGUAAGCAAUAUUACGCCGG | -1.38 ± 0.11 | -1.04 ± 0.14
CGUAAGCAAUAUUACGCCUU | -2.51 ± 0.23 | -2.05 ± 0.31
CGUAAGCAAUAUUACGCUCU | -0.698 ± 0.17 | -1.35 ± 0.2
CGUAAGCAAUAUUACGCUGA | -3.48 ± 0.42 | -1.42 ± 0.18
CGUAAGCAAUAUUACGGAAG | -2.64 ± 0.19 | -1.41 ± 0.17
CGUAAGCAAUAUUACGGAGC | -4.17 ± 0.39 | 
CGUAAGCAAUAUUACGGCAG | -0.537 ± 0.091 | -0.781 ± 0.095
CGUAAGCAAUAUUACGGCGA | -2.31 ± 0.2 | -2.02 ± 0.25
CGUAAGCAAUAUUACGGGGA | -3.42 ± 0.22 | -1.73 ± 0.14
CGUAAGCAAUAUUACGGGGG | -2.61 ± 0.14 | -2.69 ± 0.19
